Source: US20260241049A1, “Radiopharmaceutical Compositions Targeting Glypican-3 and Uses Thereof” (RayzeBio, Inc., priority 2023, published 2026)
Starred links: 1 amine or outer side, 2 acyl side, 3 side chain; linkers in the order of their positions; H or OH if unused. Positions of bridges follow the written chain, without caps; N, C: chain ends. Non-standard residues stand in square brackets, D forms with d. Primed or numbered codes have the meaning given here. *: point of attachment. YaeCOpipzaa = 2-amino-3-(4-(2-(4-(carboxymethyl)piperazine-1-carboxamido)ethoxy)phenyl)propanoic acid, O=C(NCCOc1ccc(C[C@H](N[*:1])C(=O)[*:2])cc1)N1CCN(CC(=O)[*:3])CC1; F4amCOpipzaa = 2-amino-3-(4-((4-(carboxymethyl)piperazine-1-carboxamido)methyl)phenyl)propanoic acid, O=C(NCc1ccc(C[C@H](N[*:1])C(=O)[*:2])cc1)N1CCN(CC(=O)[*:3])CC1; F4aaopipzaa = 2-amino-3-(4-(2-(4-(carboxymethyl)piperazin-1-yl)-2-oxoethoxy)phenyl)propanoic acid, O=C(COc1ccc(C[C@H](N[*:1])C(=O)[*:2])cc1)N1CCN(CC(=O)[*:3])CC1; DOTA‑Lu = DOTA-lutetium(175) amide on the side-chain amine, O=C([O-])CN1CCN(CC(=O)[O-])CCN(CC(=O)*)CCN(CC(=O)[O-])CC1.[175Lu+3]; Thr(Me) = O-methyl threonine, (3R)-2-amino-3-methoxybutanoic acid, CO[C@H](C)[C@H](N[*:1])C(=O)[*:2]; F4aao = 4-(carboxymethoxy)-L-phenylalanine, O=C([C@H](Cc1ccc(OCC(=O)[*:3])cc1)N[*:1])[*:2]; MeHseMe(6) = (2S)-4-methoxy-2-(methylamino)butanoic acid, COCC[C@@H](C(=O)[*:2])N(C)[*:1]; MeHseMe = N-methyl-O-methyl-L-homoserine, COCC[C@@H](C(=O)[*:2])N(C)[*:1]; Thr(Me)(3) = TMe, O-methyl-L-threonine, CO[C@H](C)[C@H](N[*:1])C(=O)[*:2]; Phe(4-(1-Me-pyrazol-4-yl)) = Cn1cc(-c2ccc(C[C@H](N)C(=O)O)cc2)cn1; DOTA‑Lu(3) = DOTA chelate with cold lutetium-175, amide-linked; TMe = O-methyl-L-threonine, CO[C@H](C)[C@H](N[*:1])C(=O)[*:2]; NMeAla(isoquinolin-7-yl) = CN[C@@H](Cc1ccc2ccncc2c1)C(=O)O; 3Pal(6-Ph) = N[C@@H](Cc1ccc(-c2ccccc2)nc1)C(=O)O; Phe(4-COOH) = N[C@@H](Cc1ccc(C(=O)O)cc1)C(=O)O; NMe2Nal = CN[C@@H](Cc1ccc2ccccc2c1)C(=O)O; NMeI = CC[C@H](C)[C@H](NC)C(=O)O; NMeQ = CN[C@@H](CCC(N)=O)C(=O)O; NMeK = CN[C@@H](CCCCN)C(=O)O; NMeC = CN[C@@H](CS)C(=O)O; NMeA = CN[C@@H](C)C(=O)O

Each binder was assayed against T1, Human Glypican3-Fc (ACRO Biosystems, GP3-H5258) (human, UniProt P51654 25-559) (assay: SPR (Biacore T200), Method B-2: human Glypican3-Fc captured by anti-human Fc on CM3 chip, peptide as analyte).
T1 construct: Bought fusion protein, captured in Methods B-2, B-3 and B-4; Catalogue number is printed only in Method B-2; not shown: Fc part of the bought fusion
Description: A CM3 sensor chip (Cytiva) was inserted into a Biacore T200 (Cytiva), primed three times with a running buffer: HBS-P-+, pH 7.4 (Cytiva), and equilibrated at a flow rate of 30 μL/min. Using the Anti-Fc Capture Kit (Cytiva), 50 LL each of 60 mM EDC solution (Cytiva) and 650 mM NHS solution (Cytiva) were mixed, and then reacted at a flow rate of 10 μL/min for 420 seconds, 150 μL of […] Anti-human IgG (Fc) Antibody solution was prepared by diluting with 10 mM acetic acid solution (pH 5.0), reacted at a flow rate of 10 μL/min for 420 seconds, and immobilized on a CM3 sensor chip. After immobilization, 1.0 M ethanolamine aqueous solution (Cytiva) was allowed to react for 420 seconds at a flow rate of 10 μL/min for capping. Human Glypican3-Fc (ACRO Biosystems, GP3-H5258) was allowed to react for 60 seconds at a flow rate of 10 μL/min. After capturing human Glypican3-Fc, a peptide solution prepared to 10 mM in DMSO solution was diluted with a running buffer to a final concentration of 10 μM. […] Using the above samples, peptide kinetics for Glypican3 was obtained by SPR measurement. Kinetics evaluation of Glypican3 was performed by SPR measurements at a flow rate of 10 μL/min. setting the association time to 120 seconds and the disassociation time to 600 seconds.
The obtained data by Method B-1, Method B-2, Method B-3 and Method B-4 were analyzed by follow. Single Cycle Kinetics was used as the kinetics evaluation model, and curve fitting was performed using Biacore T200 Evaluation Software Version 3.0 (Cytiva).

Row | Binder | Kd
1 | {CH2CO}-[NMeQ][MeHseMe]D[NMeQ][Phe(4-COOH)][Thr(Me)]I[F4amCOpipzaa][NMe2Nal]G[3Pal(6-Ph)][NMeC]-NH2 (thioether N-12; SMILES CC[C@H](C)[C@@H]1NC(=O)[C@H]([C@@H](C)OC)NC(=O)[C@H](Cc2ccc(C(=O)O)cc2)NC(=O)[C@H](CCC(N)=O)N(C)C(=O)[C@H](CC(=O)O)NC(=O)[C@H](CCOC)N(C)C(=O)[C@H](CCC(N)=O)N(C)C(=O)CSC[C@@H](C(N)=O)N(C)C(=O)[C@H](Cc2ccc(-c3ccccc3)nc2)NC(=O)CNC(=O)[C@H](Cc2ccc3ccccc3c2)N(C)C(=O)[C@H](Cc2ccc(CNC(=O)N3CCN(CC(=O)O)CC3)cc2)NC1=O) [Macrocyclic peptide of Example 2-20 (SEQ ID No. 38)] | 700 pM
2 | {CH2CO}-[NMeQ][MeHseMe]D[NMeQ][Phe(4-COOH)][Thr(Me)(3)]I[F4aaopipzaa][NMe2Nal]G[3Pal(6-Ph)][NMeC]-NH2 (thioether N-12; SMILES CC[C@H](C)[C@@H]1NC(=O)[C@H]([C@@H](C)OC)NC(=O)[C@H](Cc2ccc(C(=O)O)cc2)NC(=O)[C@H](CCC(N)=O)N(C)C(=O)[C@H](CC(=O)O)NC(=O)[C@H](CCOC)N(C)C(=O)[C@H](CCC(N)=O)N(C)C(=O)CSC[C@@H](C(N)=O)N(C)C(=O)[C@H](Cc2ccc(-c3ccccc3)nc2)NC(=O)CNC(=O)[C@H](Cc2ccc3ccccc3c2)N(C)C(=O)[C@H](Cc2ccc(OCC(=O)N3CCN(CC(=O)O)CC3)cc2)NC1=O) [Macrocyclic peptide of Example 2-22 (SEQ ID No. 40)] | 800 pM
3 | Ac-[NMeK](DOTA‑Lu(3))[MeHseMe(6)]D[NMeQ][Phe(4-COOH)][TMe]IY[NMeAla(isoquinolin-7-yl)]G[3Pal(6-Ph)][NMeC]-NH2 (bridge N-12; not fully specified (bridges); also: cold Lu-175 chelated by DOTA) [Lu-C-45] | 740 pM
4 | {CH2CO}-[NMeA][NMeQ]D[NMeQ][Phe(4-COOH)]II[Phe(4-COOH)][NMe2Nal]G[3Pal(6-Ph)][NMeC]-NH2 (thioether N-12; SMILES CC[C@H](C)[C@@H]1NC(=O)[C@H](Cc2ccc(C(=O)O)cc2)NC(=O)[C@H](CCC(N)=O)N(C)C(=O)[C@H](CC(=O)O)NC(=O)[C@H](CCC(N)=O)N(C)C(=O)[C@H](C)N(C)C(=O)CSC[C@@H](C(N)=O)N(C)C(=O)[C@H](Cc2ccc(-c3ccccc3)nc2)NC(=O)CNC(=O)[C@H](Cc2ccc3ccccc3c2)N(C)C(=O)[C@H](Cc2ccc(C(=O)O)cc2)NC(=O)[C@H]([C@@H](C)CC)NC1=O) [Macrocyclic peptide of Example 2-23 (SEQ ID No. 43)] | 1500 pM
5 | {CH2CO}-[NMeQ][MeHseMe]D[NMeQ][Phe(4-COOH)][Thr(Me)]I[YaeCOpipzaa][NMe2Nal]G[3Pal(6-Ph)][NMeC]-NH2 (thioether N-12; SMILES CC[C@H](C)[C@@H]1NC(=O)[C@H]([C@@H](C)OC)NC(=O)[C@H](Cc2ccc(C(=O)O)cc2)NC(=O)[C@H](CCC(N)=O)N(C)C(=O)[C@H](CC(=O)O)NC(=O)[C@H](CCOC)N(C)C(=O)[C@H](CCC(N)=O)N(C)C(=O)CSC[C@@H](C(N)=O)N(C)C(=O)[C@H](Cc2ccc(-c3ccccc3)nc2)NC(=O)CNC(=O)[C@H](Cc2ccc3ccccc3c2)N(C)C(=O)[C@H](Cc2ccc(OCCNC(=O)N3CCN(CC(=O)O)CC3)cc2)NC1=O) [Macrocyclic peptide of Example 2-19 (SEQ ID No. 37)] | 500 pM
6 | {CH2CO}-[NMeQ][MeHseMe]D[NMeQ][Phe(4-COOH)][Thr(Me)(3)]I[F4aao][NMeAla(isoquinolin-7-yl)]G[Phe(4-(1-Me-pyrazol-4-yl))][NMeC]-NH2 (thioether N-12; SMILES CC[C@H](C)[C@@H]1NC(=O)[C@H]([C@@H](C)OC)NC(=O)[C@H](Cc2ccc(C(=O)O)cc2)NC(=O)[C@H](CCC(N)=O)N(C)C(=O)[C@H](CC(=O)O)NC(=O)[C@H](CCOC)N(C)C(=O)[C@H](CCC(N)=O)N(C)C(=O)CSC[C@@H](C(N)=O)N(C)C(=O)[C@H](Cc2ccc(-c3cnn(C)c3)cc2)NC(=O)CNC(=O)[C@H](Cc2ccc3ccncc3c2)N(C)C(=O)[C@H](Cc2ccc(OCC(=O)O)cc2)NC1=O) [Macrocyclic peptide of Example 2-18 (SEQ ID No. 36)] | 3800 pM
7 | Ac-[NMeK](DOTA‑Lu)[NMeI]D[NMeQ][Phe(4-COOH)][TMe]I[F4aao][NMeAla(isoquinolin-7-yl)]G[3Pal(6-Ph)][NMeC][dE]-NH2 (bridge N-12; not fully specified (bridges); printed as MeK(DOTA-Lu)-MeI-D-MeQ-F4COO-TMe-I-F4aao-MeNal27N-G-3Py6Ph-MeC-de-NH2) [Lu-C-31] | 7050 pM
